Data reported in the RNAGym collection of RNA variant scans (doi:10.1073/pnas.2313332121).

B1: TPR t1 (parent)
chain: GACCAAUCUGCCCUCAGAGCUCGAGAACAUCUUCGGAUGCAGAGGAGGCAGGCUUCGGUGGCGCGAUAGCGCCAACGUCCUCAACCUCCAAUGCAUCCCACCACAUGAUGAUGCCUGAAGAGCCUUGGUUUUUUG

Variants of: B1
Assay: polymerase ribozyme fitness, log enrichment relative to wild type (log ratio); higher = more active; in vitro selection for triplet polymerase activity
How it was run: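 Fitness compares each genotype's enrichment to that of the wild type on a logarithmic scale, averaging replicates with inverse-variance weights. The logarithm is base 2. Enrichment came from Illumina sequencing of input and output libraries after one triplicate round of in vitro selection, which included frozen incubation at −7 °C, of PCR-built, transcribed mutant libraries of each subunit of a heterodimeric triplet polymerase ribozyme. Only genotypes with ≥10 input reads and ≥1 read per output were kept.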

Going from C49A C123U to C49U C53U C72G C114U, the “polymerase ribozyme fitness (log ratio)” value falls from 1.14 to -3.44.

Going from C49G C82G A118U to G48U C64A C86G A111G G135A, the “polymerase ribozyme fitness (log ratio)” value falls from -0.627 to -6.11.

Compared with G48U G57U C85A C114G U129A, C49U G61U C70G U81G C115G C123U U130A is higher in “polymerase ribozyme fitness (log ratio)” value: -6.62 for the first, -5.96 for the second.

Compared with A50G G63U C101G G120C U130G, C49U A50U G51A is higher in “polymerase ribozyme fitness (log ratio)” value: -3.55 for the first, -2.62 for the second.

First: C49U U96C C124A
Second: A50C G117U
The “polymerase ribozyme fitness (log ratio)” value of the first is higher: 1.03 for the first, -2.95 for the second.

Going from A50C U116A U131A to G48C C86U C115A, the “polymerase ribozyme fitness (log ratio)” value rises from -3.32 to -1.07.

Going from A50G A75U C80U U81A C114U U133C to G48A G63A U116C G122A, the “polymerase ribozyme fitness (log ratio)” value falls from -4.62 to -5.7.

First: G48A U87A
Second: A50C U92G U112A G135A
The “polymerase ribozyme fitness (log ratio)” value of the first is higher: -0.877 for the first, -3.14 for the second.

Going from G48U A111U U125G to G48U C53G G69U, the “polymerase ribozyme fitness (log ratio)” value rises from -4.47 to -0.128.

Compared with G48C C72G U78G U92A C124G, A50C C56A G77C C115A is higher in “polymerase ribozyme fitness (log ratio)” value: -2.22 for the first, -1.07 for the second.

First: G47U U78C
Second: G48A G52A
The “polymerase ribozyme fitness (log ratio)” value of the first is lower: -1.44 for the first, -0.371 for the second.

First: C49A C70U C80A U116C
Second: C49U G128U
The “polymerase ribozyme fitness (log ratio)” value of the first is lower: -7.47 for the first, -2.9 for the second.

Going from G48C C123U to C49G A90C U126C, the “polymerase ribozyme fitness (log ratio)” value falls from -0.702 to -3.39.

First: C49G U78G U112A
Second: G48U G110C
The “polymerase ribozyme fitness (log ratio)” value of the first is higher: -0.0739 for the first, -4.65 for the second.

Going from G48U C72U C85A U92C G93C C101U to G48C G61U, the “polymerase ribozyme fitness (log ratio)” value rises from -3.44 to 0.754.

Going from G48C G93A A105C to A50G G52A, the “polymerase ribozyme fitness (log ratio)” value rises from -4.64 to 0.186.

G48U G57A and A50C A84C are within 0.2 log units of each other in “polymerase ribozyme fitness (log ratio)” value: -1.01 for the first, -1.1 for the second.

First: A50C U125A
Second: A50G A66G C73U C86A C115G
The “polymerase ribozyme fitness (log ratio)” value of the first is higher: -0.974 for the first, -4.26 for the second.

Compared with C49A C86G C101A A118U, C49U G71C C94G is lower in “polymerase ribozyme fitness (log ratio)” value: -1.56 for the first, -2.87 for the second.

Going from C49U U106A U116G G128A to A50C G57U G113U, the “polymerase ribozyme fitness (log ratio)” value rises from -5.82 to -4.25.

Compared with A50G A105C, G47U G135A is higher in “polymerase ribozyme fitness (log ratio)” value: -2.43 for the first, -2.09 for the second.

Going from G48C C82A A84C to G48C G93U U96A A111G, the “polymerase ribozyme fitness (log ratio)” value falls from -1.03 to -5.62.

Going from G48U U78C to C49A G71A C98G A100C, the “polymerase ribozyme fitness (log ratio)” value falls from -1.27 to -7.02.

Going from G48C C49A U78G U81G to G48A U54G G110C, the “polymerase ribozyme fitness (log ratio)” value falls from -1.87 to -4.76.

Compared with G48A G52A C101G, G48U U112A is higher in “polymerase ribozyme fitness (log ratio)” value: -2.71 for the first, 0.632 for the second.

Going from G48U A50U U78C A90U C123A to G48A U133G, the “polymerase ribozyme fitness (log ratio)” value rises from -2.26 to -1.38.

Going from C49U C72U C94G to G48A G69U C123U, the “polymerase ribozyme fitness (log ratio)” value rises from -1.72 to 0.885.

First: A50C C70A
Second: C49U G57U G61A G120A
The “polymerase ribozyme fitness (log ratio)” value of the first is lower: -2.58 for the first, -0.511 for the second.

Going from G48C U92A C104U to G48C C56G C62U U78C C115U C124A, the “polymerase ribozyme fitness (log ratio)” value rises from -3.44 to -2.1.

Compared with G48U U92G, C49U G120C C123G is higher in “polymerase ribozyme fitness (log ratio)” value: -3.54 for the first, -0.212 for the second.

First: C49G G69U G117A
Second: G48U A90G U112A
The “polymerase ribozyme fitness (log ratio)” value of the first is higher: -1.13 for the first, -2.03 for the second.

First: G48U C94U
Second: G48U C94G
The “polymerase ribozyme fitness (log ratio)” value of the first is higher: -1.2 for the first, -1.44 for the second.

Going from C49G C115U to C49G C115G, the “polymerase ribozyme fitness (log ratio)” value falls from -1.48 to -2.98.

Going from C49G C115A to C49U G71C G117U G120A C124A, the “polymerase ribozyme fitness (log ratio)” value falls from -1.51 to -2.34.

Compared with G48A U54A C62U C82U C85A C104A, G48A G110A is higher in “polymerase ribozyme fitness (log ratio)” value: -2.99 for the first, -1.6 for the second.

Compared with C49G C85G U116G, C49U C98U is higher in “polymerase ribozyme fitness (log ratio)” value: -3.63 for the first, -2.16 for the second.

Going from C49U C62G G71A to G48C U67C G71A A95G U106A, the “polymerase ribozyme fitness (log ratio)” value falls from -1.5 to -8.09.

Going from C49U G61U U81A C115G to G48A G93A U96C C99U, the “polymerase ribozyme fitness (log ratio)” value falls from -2.05 to -4.9.

C49U G60A A83G U133A and C49G C72U are within 0.2 log units of each other in “polymerase ribozyme fitness (log ratio)” value: -0.755 for the first, -0.921 for the second.

First: G48C C62U C64U C97U A100U C123A
Second: A50C G58C C98U C123G
The “polymerase ribozyme fitness (log ratio)” value of the first is lower: -2.01 for the first, 0.72 for the second.

Compared with G48A C56G, C49A G71A G77C is lower in “polymerase ribozyme fitness (log ratio)” value: -0.92 for the first, -1.63 for the second.

With C49U C62A the “polymerase ribozyme fitness (log ratio)” value was -2.25.
